According to article PMC7480105, “Wbox2: A clathrin terminal domain–derived peptide inhibitor of clathrin-mediated endocytosis” (The Journal of Cell Biology, 2020):

B1: TD: clathrin heavy chain N-terminal domain, generated by mutating T495 to a stop codon in TDD (protein, UniProt Q00610 1-494, looked up, fragment)
chain: MAQILPIRFQEHLQLQNLGINPANIGFSTLTMESDKFICIREKVGEQAQVVIIDMNDPSNPIRRPISADSAIMNPASKVIALKAGKTLQIFNIEMKSKMKAHTMTDDVTFWKWISLNTVALVTDNAVYHWSMEGESQPVKMFDRHSSLAGCQIINYRTDAKQKWLLLTGISAQQNRVVGAMQLYSVDRKVSQPIEGHAASFAQFKMEGNAEESTLFCFAVRGQAGGKLHIIEVGTPPTGNQPFPKKAVDVFFPPEAQNDFPVAMQISEKHDVVFLITKYGYIHLYDLETGTCIYMNRISGETIFVTAPHEATAGIIGVNRKGQVLSVCVEEENIIPYITNVLQNPDLALRMAVRNNLAGAEELFARKFNALFAQGNYSEAAKVAANAPKGILRTPDTIRRFQSVPAQPGQTSPLLQYFGILLDQGQLNKYESLELCRPVLQQGRKQLLEKWLKEDKLECSEELGDLVKSVDPTLALSVYLRANVPNKVIQCFAE
modifications: HA tag
notes: clathrin heavy chain N-terminal domain, generated by mutating T495 to a stop codon in TDD
B2: TDD: clathrin heavy chain fragment (residues 1–1,074): N-terminal domain plus distal leg, overexpressed by Tet-off adenovirus (protein)
chain: MAQILPIRFQEHLQLQNLGINPANIGFSTLTMESDKFICIREKVGEQAQVVIIDMNDPSNPIRRPISADSAIMNPASKVIALKAGKTLQIFNIEMKSKMKAHTMTDDVTFWKWISLNTVALVTDNAVYHWSMEGESQPVKMFDRHSSLAGCQIINYRTDAKQKWLLLTGISAQQNRVVGAMQLYSVDRKVSQPIEGHAASFAQFKMEGNAEESTLFCFAVRGQAGGKLHIIEVGTPPTGNQPFPKKAVDVFFPPEAQNDFPVAMQISEKHDVVFLITKYGYIHLYDLETGTCIYMNRISGETIFVTAPHEATAGIIGVNRKGQVLSVCVEEENIIPYITNVLQNPDLALRMAVRNNLAGAEELFARKFNALFAQGNYSEAAKVAANAPKGILRTPDTIRRFQSVPAQPGQTSPLLQYFGILLDQGQLNKYESLELCRPVLQQGRKQLLEKWLKEDKLECSEELGDLVKSVDPTLALSVYLRANVPNKVIQCFAETGQVQKIVLYAKKVGYTPDWIFLLRNVMRISPDQGQQFAQMLVQDEEPLADITQIVDVFMEYNLIQQCTAFLLDALKNNRPSEGPLQTRLLEMNLMHAPQVADAILGNQMFTHYDRAHIAQLCEKAGLLQRALEHFTDLYDIKRAVVHTHLLNPEWLVNYFGSLSVEDSLECLRAMLSANIRQNLQICVQVASKYHEQLSTQSLIELFESFKSFEGLFYFLGSIVNFSQDPDVHFKYIQAACKTGQIKEVERICRESNCYDPERVKNFLKEAKLTDQLPLIIVCDRFDFVHDLVLYLYRNNLQKYIEIYVQKVNPSRLPVVIGGLLDVDCSEDVIKNLILVVRGQFSTDELVAEVEKRNRLKLLLPWLEARIHEGCEEPATHNALAKIYIDSNNNPERFLRENPYYDSRVVGKYCEKRDPHLACVAYERGQCDLELINVCNENSLFKSLSRYLVRRKDPELWGSVLLESNPYRRPLIDQVVQTALSETQDPEEVSVTVKAFMTADLPNELIELLEKIVLDNSVFSEHRNLQNLLILTAIKADRTRVMEYINRLDNYDAPDIANIAISNELFEEAFAIFRK
modifications: left off: HA, N-terminal, kept
notes: clathrin heavy chain fragment (residues 1–1,074): N-terminal domain plus distal leg, overexpressed by Tet-off adenovirus

Key:
Type in all cases: cell-based
ARPE/HPV eGFP-CLCa cells = assay: TIRFM CCP dynamics with TDD/TD overexpression; details: TIRFM and cmeAnalysis (Fig. 3 C, Fig. 4 C)
Protocol: Cells were seeded on a gelatin-coated 22 × 22–mm cover glass (Corning; 2850-22) overnight and moved to fresh cell culture medium 30 min before being mounted on a 25 × 75–mm slide (Thermo Fisher Scientific; 3050). Imaging was conducted with a 60×, 1.49-NA Apo TIRF objective (Nikon) mounted on a Ti-Eclipse inverted microscope. Perfect focus was used during time-lapse imaging. TIRF penetration depth was ∼80 nm. Videos were acquired for 7.5 min at the rate of 1 frame/s for all live-cell imaging. For dual-color imaging, two sequential images of primary and secondary channel were taken within 1 s, and the video length was the same as single-channel imaging. Published cmeAnalysis software was used for CCP detection, tracking, and quantification ([Aguet et al., 2013]; [Jaqaman et al., 2008]; [Loerke et al., 2011]).

[1] = tested on: CD59 uptake in ARPE/HPV cells; assay: CD59 uptake (clathrin-independent endocytosis marker); details: TDD expression (0 ng/ml Tet), ARPE/HPV cells (Fig. 2 F)
Protocol: (§1) Internalization of TfnR, CD44, CD59, and Biotin-Tfn was quantified by in-cell ELISA following established protocols ([Conner and Schmid, 2003]; [Srinivasan et al., 2018]). Cells were seeded in 96-well plates (Costar) at 60–70% confluence and grown overnight. Before the assay, cells were starved for 30 min in PBS4+ at 37°C or treated with peptides in PBS4+ at 37°C for the indicated times. After starvation, cells were moved to 4°C, and culture medium was replaced with cold PBS4+ containing 5 µg/ml HTR-D65 (anti-TfnR mAb; [Schmid and Smythe, 1991]), anti-human CD44 or anti-human CD59 (BD PharMingen) or 5 µg/ml Biotin-Tfn (Sigma-Aldrich). For single-round assays, the above reagents were kept with cells for 20 min at 4°C and then washed out before uptake assay. For multiround assays, the above reagents were kept with cells throughout the uptake process. In parallel, some cells were kept at 4°C for the measurement of surface-bound ligands and blank controls, and some were incubated in a 37°C water bath for the indicated times. […] Color was developed using o-phenylenediamine dihydrochloride (OPD) solution (Sigma-Aldrich), and absorbance was read at 490 nm (Biotek Synergy H1 Hybrid Reader). Cell number variation among wells was accounted for by bicinchoninic acid assay reading at 562 nm.

[2] = tested on: association of AP2 with the membrane pellet, ARPE cells; assay: Subcellular fractionation, AP2 in membrane pellet; details: cells with TDD overexpression, n = 3; control cells 59 ± 14% (Fig. 5 E)
Protocol: Confluent ARPE or ARPE/HPV cells in a 10-cm dish were detached with 3 ml of 50 mM EDTA at 37°C for 10 min. Extra EDTA after detachment was neutralized with 0.2 ml of 1 M MgCl2. Cells were then spun down at 500 g for 3 min and washed with cold PBS. After another spin to remove PBS, cells were resuspended in 0.5 ml ice-cold lysis buffer (25 mM Hepes, 250 mM sucrose, 1 mM MgCl2, and 2 mM EGTA, pH 7.4). Cells were then lysed by five rounds of freeze–thaw cycle (rapid freezing in liquid nitrogen and slow thawing in room temperature water bath, followed by brief vortex and 10-s sonication). Intact cells and nuclei were removed by centrifugation for 2 min at 500 g. 0.1 ml of lysed sample was kept as total control, and the rest (0.4 ml) underwent ultracentrifugation at 4°C for 30 min at 110,000 g to separate membranes (pellet) from cytosol (supernatant). Supernatant was transferred to another low binding Eppendorf, and the pellet was resuspended with the same volume of lysis buffer (0.4 ml). Total, pellet, and supernatant were heat denatured in 1× sample buffer and probed by Western blotting.

Tfn recycling = assay: Biotin-Tfn recycling assay; details: TDD expression (0 ng/ml Tet), ARPE/HPV cells, 10- or 30-min pulse (Fig. 2 D)
Protocol: Biotin-Tfn recycling was conducted according to previous protocols ([Chen et al., 2017]). Cells were cultured in biotin-free medium for 48 h, seeded in 96-well plates (Costar) at 60–70% confluence, and grown overnight. Before assay, cells were starved for 45 min in PBS4+ at 37°C or treated with peptides in PBS4+ at 37°C for the indicated times. After starvation, cells were supplied with 100 µl of 5 µg/ml Biotin-Tfn in PBS4+ for 10 or 30 min to load Biotin-Tfn into cells. When loading was complete, cells were cooled down to 4°C and washed with PBS4+ to remove extra Biotin-Tfn. Some cells were kept at 4°C as loading controls. The remaining cells were first treated with avidin and biocytin to mask the surface-bound Biotin-Tfn, and then incubated at 37°C for the indicated times. All the cells were then acid washed and fixed with 4% PFA as above. Blocking steps were the same as for the Biotin-Tfn uptake assay. Data were expressed as percentage of total intracellular ligand remaining relative to the initial load.

[3] = tested on: CD44 uptake in ARPE/HPV cells; assay: CD44 uptake (clathrin-independent endocytosis marker); details: TDD expression (0 ng/ml Tet), ARPE/HPV cells (Fig. 2 F)
Protocol: as §1

[4] = tested on: TfnR uptake in ARPE cells; assay: TfnR uptake with TDD overexpression (Tet-off adenovirus); details: maximum TDD expression, adenovirus-infected ARPE cells, n = 4 replicates (Fig. 2 C)
Protocol: TDD, TD, and tTA adenoviruses were applied to cells directly in culture medium. Pilot experiments were conducted to optimize the volumes of each virus preparation need for uniform infection (Fig. S1, A and B). Experiments were conducted after 12–18 h, allowing for adequate viral infection and protein expression. Protein expression could be regulated by adjusting Tet concentration. All experiments were performed in the absence of Tet, allowing for maximum protein expression, except for Fig. 1, A–C.
as §1, with “(Sigma-Aldrich).” for “(Sigma-Aldrich). For single-round assays, the above reagents were kept with cells for 20 min at 4°C and then washed out before uptake assay. For multiround assays, the above reagents were kept with cells throughout the uptake process. In parallel, some cells were kept at 4°C for the measurement of surface-bound ligands and blank controls, and some were incubated in a 37°C water bath for the indicated times.”

[5] = tested on: fluid phase uptake of HRP in ARPE/HPV cells; assay: Fluid-phase uptake of HRP; details: TDD expression (0 ng/ml Tet), ARPE/HPV cells (Fig. 2 E)
Protocol: Fluid-phase uptake assays were conducted using HRP (Sigma-Aldrich) as the readout. Cells were seeded in 96-well plates (Costar) at 60–70% confluence and grown overnight. Before assay, cell culture medium was changed to PBS4+ and cooled down to 4°C. Ice-cold HRP solution (1 mg/ml) was added to cells and moved to a 37°C water bath for 30 min. In parallel, some cells were kept at 4°C as blank control. All the cells were acid washed (0.2 M acetic acid and 0.2 M NaCl, pH 2.3) and lysed with ELISA blocking buffer (1% Triton X-100, 0.1% SDS, 0.2% BSA, 50 mM NaCl, and 1 mM Tris, pH 7.4) for 1 h at 4°C. Color was developed using OPD solution (Sigma-Aldrich), and absorbance was read at 490 nm (Biotek Synergy H1 Hybrid Reader).

Molecule | CCP initiation (ARPE/HPV eGFP-CLCa cells) | CD59 uptake (CIE) [1] | association of AP2 with the membrane pellet [2] [%] | recycling of Tfn (Tfn recycling) | CD44 uptake (CIE) [3] | inhibition of endocytic efficiency of TfnR [4] [%] | fluid phase uptake (HRP) [5]
B1 | sufficient to suppress |  |  |  |  |  | 
B2 | dramatically decreased | not significantly inhibited | 76 ± 14 | not significantly perturbed | not significantly inhibited | 80 | not significantly inhibited
